Measurements as given in patent publication US20210380679A1 (INHIBRX BIOSCIENCES, published 2021).

T1: human DLL3 (Delta-like ligand 3) (human, UniProt Q9NYJ7 27-618)
T1 construct: endogenous on SHP-77 cells; also called cell-surface DLL3
T1 sequence: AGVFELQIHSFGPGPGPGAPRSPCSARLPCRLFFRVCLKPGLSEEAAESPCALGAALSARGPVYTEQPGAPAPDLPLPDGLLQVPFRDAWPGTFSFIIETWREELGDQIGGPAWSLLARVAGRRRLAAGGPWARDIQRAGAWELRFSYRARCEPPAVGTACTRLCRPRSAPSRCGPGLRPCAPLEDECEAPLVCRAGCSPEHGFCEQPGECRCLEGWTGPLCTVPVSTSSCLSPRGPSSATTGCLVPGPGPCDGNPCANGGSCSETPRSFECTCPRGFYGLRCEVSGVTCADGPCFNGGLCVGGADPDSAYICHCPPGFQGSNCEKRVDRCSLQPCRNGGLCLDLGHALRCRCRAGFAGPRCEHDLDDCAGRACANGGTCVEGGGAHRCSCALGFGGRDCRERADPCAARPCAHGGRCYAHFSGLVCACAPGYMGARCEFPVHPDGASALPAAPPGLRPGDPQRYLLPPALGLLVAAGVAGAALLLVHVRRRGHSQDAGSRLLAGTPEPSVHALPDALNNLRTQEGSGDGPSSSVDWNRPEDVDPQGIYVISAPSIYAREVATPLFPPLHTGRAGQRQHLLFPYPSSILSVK


Biological target: T1, human DLL3 (Delta-like ligand 3)
Test: flow cytometry, sdAb-Fc titrated on SHP-77 cells (DLL3 positive), APC anti-human Fc secondary
Description: FIGS. 2A-L set forth a series of graphs depicting the ability of sdAb and humanized variants thereof targeting DLL3 to bind cell surface DLL3.
Specificity and relative affinity were assessed for purified sdAb-Fcs on DLL3-expressing cells. […] A titration series of the fusion protein was incubated with the DLL3-expressing cell lines (approximately 2.5×10⁴ to 5×10⁴ cells/well) for 30 minutes at 4 degrees Celsius in FACS Buffer (PBS 1% BSA, 0.1% NaN₃ pH 7.4) in 96-well plates. Following three wash steps in FACS buffer, an APC-conjugated anti-human Fcγ specific secondary antibody (Jackson ImmunoResearch) was added and incubated for 30 minutes at 4 degrees Celsius. Following three additional wash steps in FACS buffer bound antibody was detected via flow cytometry (IQue Intellicyte).

Binder	binding result	EC50 (read off the curve) [nM]
hz10D9v7 (Fc fusion, tested as VHH-human Fc; Fc not specified) VHH: EVQLVESGGGEVQPGGSLRLSCAASGSIFSINAMGWYRQAPGKQRELVAGFTGDTNTIYAESVKGRFTISRDNAKNTVYLQMSSLRAEDTAVYYCAADVQLFSRDYEFYWGQGTLVTVKP	binds	–
hz3C5v4 (Fc fusion, tested as VHH-human Fc; Fc not specified) VHH: EVQLVESGGGEVQPGGSLRLSCAASGSIFSINAMGWYRQAPGKQRELVAGFTGEGSTKYAESVKGRFTISRDNAKNTVYLQMSSLRAEDTAVYYCAADVQLLNSDYEFYWGQGTLVTVKP	binds	–
hz3C5v6 (Fc fusion, tested as VHH-human Fc; Fc not specified) VHH: EVQLVESGGGEVQPGGSLRLSCAASGSIFSINAMGWYRQAPGKQRELVAGFTGDGSTKYAESVKGRFTISRDNAKNTVYLQMSSLRAEDTAVYYCAADVQLLTSDYEFYWGQGTLVTVKP	binds	–
hz3C5v8 (Fc fusion, tested as VHH-human Fc; Fc not specified) VHH: EVQLVESGGGEVQPGGSLRLSCAASGSIFSINAMGWYRQAPGKQRELVAGFTGDGSTKYAESVKGRFTISRDNAKNTVYLQMSSLRAEDTAVYYCAADVQLLNTDYEFYWGQGTLVTVKP	binds	–
hz10D9v5 (Fc fusion, tested as VHH-human Fc; Fc not specified) VHH: EVQLVESGGGEVQPGGSLRLSCAASGSILSINAMGWYRQAPGKQRELVAGFTGDTNTIYAESVKGRFTISRDNAKNTVYLQMSSLRAEDTAVYYCAADVQLFSRDYEFYWGQGTLVTVKP	binds	–
hz3G3v1 (Fc fusion, tested as VHH-human Fc; Fc not specified) VHH: EVQLVESGGGEVQPGGSLRLSCAASGSIFSINAMGWYRQAPGKQRELVAGFTGDGMTKYAESVKGRFTISRDNAKNTVYLQMSSLRAEDTAVYYCAADVFTDRDHVDWYWGQGTLVTVKP	binds	–
hz3C5v3 (Fc fusion, tested as VHH-human Fc; Fc not specified) VHH: EVQLVESGGGEVQPGGSLRLSCAASGSIFSINAMGWYRQAPGKQRELVAGFTGDTSTKYAESVKGRFTISRDNAKNTVYLQMSSLRAEDTAVYYCAADVQLLNSDYEFYWGQGTLVTVKP	binds	–
hz3C5v1 (Fc fusion, tested as VHH-human Fc; Fc not specified) VHH: EVQLVESGGGEVQPGGSLRLSCAASGSIFSINAMGWYRQAPGKQRELVAGFTGDGSTKYAESVKGRFTISRDNAKNTVYLQMSSLRAEDTAVYYCAADVQLLNSDYEFYWGQGTLVTVKP	binds	–
hz3C5v5 (Fc fusion, tested as VHH-human Fc; Fc not specified) VHH: EVQLVESGGGEVQPGGSLRLSCAASGSIFSINAMGWYRQAPGKQRELVAGFTGDGSTKYAESVKGRFTISRDNAKNTVYLQMSSLRAEDTAVYYCAADVQLLSSDYEFYWGQGTLVTVKP	binds	–
hz10D9v6 (Fc fusion, tested as VHH-human Fc; Fc not specified) VHH: EVQLVESGGGEVQPGGSLRLSCAASGSILSINAMGWYRQPPGKQRELVAGFTGDTNTIYAESVKGRFTISRDNAKNTVYLQMSSLRAEDTAVYYCAADVQLFSRDYEFYWGQGTLVTVKP	binds	–
hz10D9v4 (Fc fusion, tested as VHH-human Fc; Fc not specified) VHH: EVQLVESGGGEVQPGGSLRLSCAASGSILSINAMGWYRQAPGKQREMVAGFTGDTNTIYAESVKGRFTISRDNAKNTVYLQMSSLRAEDTAVYYCAADVQLFSRDYEFYWGQGTLVTVKP	binds	–
hz10D9v2 (Fc fusion, tested as VHH-human Fc; Fc not specified) VHH: EVQLVESGGGEVQPGGSLRLSCAASGSILSINAMGWYRQAPGKQRELVAGFTGDGNTIYAESVKGRFTISRDNAKNTVYLQMSSLRAEDTAVYYCAADVQLFSRDYEFYWGQGTLVTVKP	binds	–
hz5A7v1 (Fc fusion, tested as VHH-human Fc; Fc not specified) VHH: EVQLVESGGGEVQPGGSLRLSCAASGSDFSINAIGWYRQAPGKQRDMVAGFTGDGVTTYAESVKGRFTISRDNAKNTVYLQMSSLRAEDTAVYYCAADVKIGGDYEWFWGQGTLVTVKP	binds	–

Next, values leading:

binding result	EC50 (read off the curve) [nM]	Binder
–	~0.7	hz3C5v2 (Fc fusion, tested as VHH-human Fc; Fc not specified) VHH: EVQLVESGGGEVQPGGSLRLSCAASGSIFSINAMGWYRQPPGKQRELVAGFTGDGSTKYAESVKGRFTISRDNAKNTVYLQMSSLRAEDTAVYYCAADVQLLNSDYEFYWGQGTLVTVKP
binds	–	hz3C5v7 (Fc fusion, tested as VHH-human Fc; Fc not specified) VHH: EVQLVESGGGEVQPGGSLRLSCAASGSIFSINAMGWYRQAPGKQRELVAGFTGDGSTKYAESVKGRFTISRDNAKNTVYLQMSSLRAEDTAVYYCAADVQLLQSDYEFYWGQGTLVTVKP
binds	–	hz10D9v1 (Fc fusion, tested as VHH-human Fc; Fc not specified) VHH: EVQLVESGGGEVQPGGSLRLSCAASGSILSINAMGWYRQAPGKQREMVAGFTGDGNTIYAESVKGRFTISRDNAKNTVYLQMSSLRAEDTAVYYCAADVQLFSRDYEFYWGQGTLVTVKP
binds	–	hz10D9v3 (Fc fusion, tested as VHH-human Fc; Fc not specified) VHH: EVQLVESGGGEVQPGGSLRLSCAASGSILSINAMGWYRQAPGKQREMVAGFTGEGNTIYAESVKGRFTISRDNAKNTVYLQMSSLRAEDTAVYYCAADVQLFSRDYEFYWGQGTLVTVKP
binds	–	L5A7 (Fc fusion, tested as VHH-human Fc; Fc not specified) VHH: EVQLVQSGGGLVQPGGSLRLSCAASGSDFSINAIGWYRQAPGKQRDMVAGFTGDGVTTYADSVKGRFTISRDNAKNTVYLQMNSLKPEDTAVYYCAADVKIGGDYEWFWGQGTQVTVKP
binds	–	hz5A7v3 (Fc fusion, tested as VHH-human Fc; Fc not specified) VHH: EVQLVESGGGEVQPGGSLRLSCAASGSDFSINAIGWYRQAPGKQRDMVAGFTGEGVTTYAESVKGRFTISRDNAKNTVYLQMSSLRAEDTAVYYCAADVKIGGDYEWFWGQGTLVTVKP
binds	–	hz5A7v2 (Fc fusion, tested as VHH-human Fc; Fc not specified) VHH: EVQLVESGGGEVQPGGSLRLSCAASGSDFSINAIGWYRQAPGKQRDMVAGFTGDTVTTYAESVKGRFTISRDNAKNTVYLQMSSLRAEDTAVYYCAADVKIGGDYEWFWGQGTLVTVKP
binds	–	L3G3 (Fc fusion, tested as VHH-human Fc; Fc not specified) VHH: QVQLVQSGGGLVQAGGSLRLSCAASGSIFSINAMGWYREAPGKQRELVAGFTGDGMTKYAESVKGRFTFSRDNAKNTVYLQMNSLKPEDTGVYYCAADVFTDRDHVDWYWGQGTQVTVKP
binds	–	hz3G3v2 (Fc fusion, tested as VHH-human Fc; Fc not specified) VHH: EVQLVESGGGEVQPGGSLRLSCAASGSIFSINAMGWYREAPGKQRELVAGFTGDGMTKYAESVKGRFTISRDNAKNTVYLQMSSLRAEDTAVYYCAADVFTDRDHVDWYWGQGTLVTVKP
binds	–	hz3G3v4 (Fc fusion, tested as VHH-human Fc; Fc not specified) VHH: EVQLVESGGGEVQPGGSLRLSCAASGSIFSINAMGWYRQAPGKQRELVAGFTGDGMTKYAESVKGRFTISRDNAKNTVYLQMSSLRAEDTGVYYCAADVFTDRDHVDWYWGQGTLVTVKP
binds	–	hz3G3v3 (Fc fusion, tested as VHH-human Fc; Fc not specified) VHH: EVQLVESGGGEVQPGGSLRLSCAASGSIFSINAMGWYRQAPGKQRELVAGFTGDGMTKYAESVKGRFTFSRDNAKNTVYLQMSSLRAEDTAVYYCAADVFTDRDHVDWYWGQGTLVTVKP
